Source: PMC10979056 (Heliyon, 2024)
Positions count from the first letter of the chain named. One block for each binder: values may come before it.

How the values were obtained:
human TIM-3-His = human TIM-3-His (human, UniProt Q8TDQ0); test: ELISA
cynomolgus TIM-3-hFc = cynomolgus TIM-3-hFc (Macaca fascicularis, UniProt A0A2K5U3G7); test: BLI

sensitivity (lowest detectable concentration of coated TIM-3-His) (human TIM-3-His): 1 ng/mL
B1: MsT001 (antibody, V domains shown)
VH: EVQLQQSGAEVVMPGASVKMSCKTSGYTFTDYLIHWVKQRPGQGLVWIGAIDTSDSYASYNQKFKGKATLTLDESSRTAYMQLSSLTSEDSAVYFCTGEGLDYWGQGTSVTVSS
VL: DIQMTQTPLSLPVSLGDQASISCRSSQSLVHSNGNTYLNWYLQKPGQSPKLLIYKVSYRFSGVPDRFSGSGSGTDFTLKISRVEAEDLGVYFCSQSTHVPPLTFGAGTKLELK

sensitivity (lowest detectable concentration of coated TIM-3-His) (human TIM-3-His): 10 ng/mL
Kd (cynomolgus TIM-3-hFc): 0.0179 nM
B2: MsT229 (antibody, V domains shown)
VH: EIQLVQSGPELVKPGASMKMSCKASGYSFTGYTMNWVKQSHGQNLEWIGLINPQTGGTSYNQNFRGKATLTVDKSSNTAYMELLSLTSEDSAVYYCARERGFDSPGFPYWGQGTLVTVSA
VL: DIQMTQTTSSLSASLGDRVTISCRASQDISNYLNWYQQKPDGTVKLLIYYTSRLHSGVPSRFSGSGSGTDYSLTISNLEQEDIATYFCQQGNTLPLTFGAGTKLELK

sensitivity (lowest detectable concentration of coated TIM-3-His) (human TIM-3-His): 1 ng/mL
Kd (cynomolgus TIM-3-hFc): 0.914 nM
B3: MsT286 (antibody, V domains shown)
VH: B2 VH with E1Q, I2V, V5Q
VL: not shown

sensitivity (lowest detectable concentration of coated TIM-3-His) (human TIM-3-His): 1 ng/mL
B4: MsT229-Bio (antibody, V domains shown)
VH: B2 VH
VL: B2 VL
